Experimental data published in publication PMC3579193, “Elucidation of relaxin-3 binding interactions in the extracellular loops of RXFP3” (Frontiers in Endocrinology, 2013).

B1: mono-Eu-labeled relaxin-3 agonist H3 relaxin B-chain, INSL5 A chain (H3/I5) [modified: mono-Eu label on the peptide; chain and site not stated] [not stated | human] / HA-tagged human RXFP3 (HA-RXFP3) [human] (parent complex)
chain 1: RAAPYGVRLCGREFIRAVIFTCGGSRW
chain 2: QDLQTLCCTDGCSMTDLSALC
chain 3: QMADAATIATMNKAAGGDKLAELFSLVPDLLEAANTSGNASLQLPDLWWELGLELPDGAPPGHPPGSGGAESADTEARVRILISVVYWVVCALGLAGNLLVLYLMKSMQGWRKSSINLFVTNLALTDFQFVLTLPFWAVENALDFKWPFGKAMCKIVSMVTSMNMYASVFFLTAMSVTRYHSVASALKSHRTRGHGRGDCCGRSLGDSCCFSAKALCVWIWALAALASLPSAIFSTTVKVMGEELCLVRFPDKLLGRDRQFWLGLYHSQKVLLGFVLPLGIIILCYLLLVRFIADRRAAGTKGGAAVAGGRPTGASARRLSKVTKSVTIVVLSFFLCWLPNQALTTWSILIKFNAVPFSQEYFLCQVYAFPVSVCLAHSNSCLNPVLYCLVRREFRKALKSLLWRIASPSITSMRPFTATTKPEHEDQGLQAPAPPHAAAEPDLLYYPPGVVVYSGGRYDLLPSSSAY

Variants of: B1
Assay: Eu-H3/I5 binding on cells, normalized to cell surface expression; read off a plot

percent of parent | Variant
~81 % of RXFP3 binding | chain 3 D74A
~6 % of RXFP3 binding | chain 3 E140A, chain 3 D144A
~15 % of RXFP3 binding | chain 3 E243A
~96 % of RXFP3 binding | chain 3 D252A
~5.5 % of RXFP3 binding | chain 3 E140A
~9.5 % of RXFP3 binding | chain 3 D144A
~110 % of RXFP3 binding | chain 3 E71A
~130 % of RXFP3 binding | chain 3 E54A, chain 3 D57A
~79 % of RXFP3 binding | chain 3 D258A
~77 % of RXFP3 binding | chain 3 E361A
~99 % of RXFP3 binding | chain 3 D46A, chain 3 E50A
